Results on one molecule are retold here after patent publication US7501122 (Genentech, dated 2009).

One test has as its target T1, ErbB4 (HER4) (UniProt Q15303 26-651, limits assumed).
T1 sequence (looked up): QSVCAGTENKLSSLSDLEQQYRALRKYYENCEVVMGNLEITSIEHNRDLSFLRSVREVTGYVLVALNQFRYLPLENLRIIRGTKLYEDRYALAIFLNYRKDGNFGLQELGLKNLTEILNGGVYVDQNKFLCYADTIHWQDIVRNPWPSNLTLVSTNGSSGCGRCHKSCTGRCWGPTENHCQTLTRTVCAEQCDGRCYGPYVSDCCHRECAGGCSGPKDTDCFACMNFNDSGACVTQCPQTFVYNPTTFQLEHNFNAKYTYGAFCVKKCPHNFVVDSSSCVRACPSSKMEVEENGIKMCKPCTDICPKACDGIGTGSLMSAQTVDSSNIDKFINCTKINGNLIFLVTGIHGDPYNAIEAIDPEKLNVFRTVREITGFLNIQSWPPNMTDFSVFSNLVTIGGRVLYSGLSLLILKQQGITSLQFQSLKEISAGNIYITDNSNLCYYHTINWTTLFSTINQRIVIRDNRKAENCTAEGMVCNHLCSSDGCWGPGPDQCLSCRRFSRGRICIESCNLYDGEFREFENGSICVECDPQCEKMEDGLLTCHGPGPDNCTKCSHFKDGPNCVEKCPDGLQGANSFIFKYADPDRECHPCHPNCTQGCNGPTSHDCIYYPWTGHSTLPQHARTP
Nature of the test: not described.

The target in the next test is T2, ErbB3 (HER3) (human, UniProt P21860 20-1342).
T2 construct: whole, on cells
T2 sequence (P21860 20-1342): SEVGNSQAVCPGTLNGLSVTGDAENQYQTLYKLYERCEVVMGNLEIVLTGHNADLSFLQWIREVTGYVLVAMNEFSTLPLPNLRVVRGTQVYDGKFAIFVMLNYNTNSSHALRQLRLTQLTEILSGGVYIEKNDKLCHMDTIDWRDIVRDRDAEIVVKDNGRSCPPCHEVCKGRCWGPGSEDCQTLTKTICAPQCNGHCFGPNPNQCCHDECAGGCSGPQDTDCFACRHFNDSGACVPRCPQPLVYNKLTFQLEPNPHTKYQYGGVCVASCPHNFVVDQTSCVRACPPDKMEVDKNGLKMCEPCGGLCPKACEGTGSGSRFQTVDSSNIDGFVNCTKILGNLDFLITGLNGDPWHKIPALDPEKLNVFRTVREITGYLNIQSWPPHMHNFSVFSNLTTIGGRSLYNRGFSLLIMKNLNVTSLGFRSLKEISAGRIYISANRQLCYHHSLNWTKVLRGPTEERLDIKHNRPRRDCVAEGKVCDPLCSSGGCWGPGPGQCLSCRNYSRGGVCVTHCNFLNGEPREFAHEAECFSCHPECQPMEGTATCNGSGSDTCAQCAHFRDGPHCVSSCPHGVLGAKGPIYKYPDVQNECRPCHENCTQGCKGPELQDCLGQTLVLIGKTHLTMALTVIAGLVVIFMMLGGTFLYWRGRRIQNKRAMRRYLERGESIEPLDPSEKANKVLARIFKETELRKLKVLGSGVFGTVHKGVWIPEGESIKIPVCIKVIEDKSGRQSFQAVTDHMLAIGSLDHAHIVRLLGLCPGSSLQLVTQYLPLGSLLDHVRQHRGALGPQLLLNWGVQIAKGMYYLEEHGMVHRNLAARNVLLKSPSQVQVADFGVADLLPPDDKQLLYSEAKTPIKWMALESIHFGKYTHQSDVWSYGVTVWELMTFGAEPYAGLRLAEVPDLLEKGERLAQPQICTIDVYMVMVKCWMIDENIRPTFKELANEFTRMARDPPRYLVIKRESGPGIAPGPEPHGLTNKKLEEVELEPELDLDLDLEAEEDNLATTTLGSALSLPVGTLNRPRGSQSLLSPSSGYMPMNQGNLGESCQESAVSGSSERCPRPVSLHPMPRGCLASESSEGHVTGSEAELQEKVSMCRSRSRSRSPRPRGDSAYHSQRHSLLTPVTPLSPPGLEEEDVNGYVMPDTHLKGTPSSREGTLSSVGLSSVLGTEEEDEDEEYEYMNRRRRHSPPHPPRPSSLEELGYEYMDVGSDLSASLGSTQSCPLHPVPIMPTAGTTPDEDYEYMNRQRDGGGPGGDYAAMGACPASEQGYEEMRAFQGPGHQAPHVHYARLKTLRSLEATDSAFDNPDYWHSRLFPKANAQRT
Nature of the test: not described.

B1: murine monoclonal antibody 2C4 (antibody, V domains shown)
VH: EVQLQQSGPELVKPGTSVKISCKASGFTFTDYTMDWVKQSHGKSLEWIGDVNPNSGGSIYNQRFKGKASLTVDRSSRIVYMELRSLTFEDTAVYYCARNLGPSFYFDYWGQGTTLTVSS
VL: DTVMTQSHKIMSTSVGDRVSITCKASQDVSIGVAWYQQRPGQSPKLLIYSASYRYTGVPDRFTGSGSGTDFTFTISSVQAEDLAVYYCQQYYIYPYTFGGGTKLEIK
notes: also called mu 2C4; intact murine 2C4
On to B1, for which the binding result with ErbB4 (HER4) and with ErbB3 (HER3) was “no binding” each time.
